In patent US20250188136A1, “AV3 MUTANT POLYPEPTIDES FOR PEST CONTROL” (Vestaron Corporation, priority 2021, published 2025):
“Also recorded” adds a separate entry of the source. Ends that are not written are not given here.

Assays:
[1] = Proteolytic resistance of Av3b mutants during production-strain fermentation (rpHPLC); type: physicochemical; details: for Degradation?: mutant strain fermentation at pH 6.5, 140 hours, rpHPLC; for degradation product during fermentation (HPLC): production strain fermentation at pH 6.5, rpHPLC
Protocol: The mutants in the table below were evaluated for stability in fermentation beer. Fermentation conditions and HPLC analysis were performed as described above. The mutant production strains were generated using YCT306 K. lactis strain. The production of mutants was performed as described in Example 2; fermentation conditions were performed using the same fermentation process described above regarding the Av3b production strain, with pH control at pH 6.5. […] To identify the mutant with proteolytic resistance, the mutant strains were grown under the same fermentation conditions as Av3b, and samples were taken throughout the fermentation process. The samples taken at 140 hour of fermentation process were analyzed in rpHPLC.

houseflies = test: Housefly injection assay (knock-down); type: in vivo, Musca domestica; details: for Activity: knock-down at 5 hours post-injection normalized to Av3b, Yes = insecticidal activity maintained; for housefly knock-down / insecticidal activity relative to Av3b: knock-down at 5 hours post-injection
Protocol: An exemplary housefly injection bioassay is as follows: conditioned media is serially diluted to generate full dose-response curves from the housefly injection bioassay. Before injection, adult houseflies (Musca domestica) are immobilized with CO2, and 12-18 mg houseflies are selected for injection. A microapplicator, loaded with a 1 cc syringe and 30-gauge needle, is used to inject 0.5 μL per fly, doses of serially diluted conditioned media samples into houseflies through the body wall of the dorsal thorax. The injected houseflies are placed into closed containers with moist filter paper and breathing holes on the lids, and they are examined by knock-down ratio or by mortality scoring at 24 hours post-injection. Normalized yields are calculated. Peptide yield means the peptide concentration in the conditioned media in units of mg/L. However, peptide yields are not always sufficient to accurately compare the strain production rate. […] A culture with a high cell density may produce a higher concentration of the peptide in the media, even though the peptide production rate of the strain is lower than another strain which has a higher production rate. Accordingly, the term “normalized yield” is created by dividing the peptide yield with the cell density in the corresponding culture and this allows a better comparison of the peptide production rate between strains. The cell density is represented by the light absorbance at 600 nm with a unit of “A” (Absorbance unit).
A housefly injection assay was performed to determine the activity of the new mutants. Adult houseflies were immobilized with CO2 for 10 minutes, and then transferred to a CO2 pan to keep immobilized. Flies with weight between 12-20 mg were picked for injection. The new mutants and Av3b control were diluted in water to proper doses for injection. Next, a 0.5 μL peptide solution was injected into each housefly at the dorsal thorax using a hand-microapplicator with 1 cc all-glass syringe with 30 gauge straight needle. The injected flies were then transferred to a 2 oz. transparent portion container with a wet #4 filter paper. Fly knock-down was assessed at 5-hours post-injection. The activity of a given new mutant was then normalized to the activity of the Av3b production strain (control), using the fly knock-down score at 5 hours.

[2] = Stability of purified peptide spiked into Av3b fermentation beer (rpHPLC); type: physicochemical; details: for resistance to fermentation beer protease cleavage compared to Av3b: spiked into Av3b fermentation beer pH 6.5, room temperature
Protocol: To determine the stability of the new mutants, Av3bM19, Av3bM23, Av3bM24, Av3bM25, Av3bM27, and Av3bM28 were purified and incubated in Av3b fermentation beer. The mutants were purified by cation-exchange chromatography using a GE SP-Sephadex C-25 column. The column was first calibrated with 30 mM sodium citrate buffer at pH 3.0. Then, the culture supernatant containing the secreted mutant peptide was loaded into the column to let the mutant peptide bind to the resin. The column was then washed with 30 mM sodium citrate buffer, pH 3.0, followed by washing with 30 mM sodium acetate, pH 4.0. Next, the bound mutant peptide was eluted by 1 M or 2 M NaCl with 30 mM sodium acetate, pH 4.0. The elution was then concentrated and buffer-exchanged to 30 mM sodium acetate, pH 4.0 using a 1 kD cutoff spin concentrator.
After purification, each of the mutants, Av3bM19, Av3bM23, Av3bM24, Av3bM25, Av3bM27, and Av3bM28, were evaluated for stability by spiking them into Av3b strain fermentation beer at pH 6.5. As a negative control, Av3b was evaluated in a pH 4.0 buffer. As a positive control, purified Av3b was evaluated by spiking into the same Av3b fermentation beer at pH 6.5. All stability experiments were performed at room temperature. […] The amount of peptide remaining relative to the beginning was determined by normalizing the peak area at different time to the one at 0 hour for each treatment. The degradation trend is visualized by the bar graph of the relative remaining peptide amount trend.

| Sequence | Degradation? [1] | Activity (houseflies) | further results |
| --- | --- | --- | --- |
| KSCCPCYWGGCPWGQNCYPEGCDGP (ends and bridges not checked; cysteine pairing not given here) [Av3bM172] | Yes | – | – |
| TSCCPCYWGGCPWGQNCYPEGCSGPK (ends and bridges not checked; cysteine pairing not given here) [Av3bM31] | – | No | – |
| KSCCPCYWGGCPWGQNCYPEGCSGPN (ends and bridges not checked; cysteine pairing not given here) [Av3bM99] | Yes | – | – |
| KSCCPCYWGGCPWGQNCYPEGCTGPG (ends and bridges not checked; cysteine pairing not given here) [Av3bM169] | Yes | – | – |
| HSCCPCYWGGCPWGQNCYPEGCSGPK (ends and bridges not checked; cysteine pairing not given here) [Av3bM28] | – | Yes | housefly knock-down / insecticidal activity relative to Av3b (houseflies): without a concomitant reduction in housefly knock-down activity; also recorded: insecticidal activity |
| KSCCPCYWGGCPWGQNCYPEGCDGPA (ends and bridges not checked; cysteine pairing not given here) [Av3bM156] | Yes | – | – |
| KSCCPCYWGGCPWGTTCYPNGCDGPK (Av3bM20; VARIANT (1)..(26) Recombinant variant of Anemonia viridis Av3 peptide) | – | No | – |
| KSCCPCYWGGCPWGQNCYPEGCSGPR (ends and bridges not checked; cysteine pairing not given here) [Av3bM98] | No | – | degradation product during fermentation (HPLC) [1]: did not show any degradation product; also recorded: no degradation product |
| KSCCPCYWGGCPWGQNCYPEGCSGGV (ends and bridges not checked; cysteine pairing not given here) [Av3bM146] | Yes | – | – |
| SSCCPCYWGGCPWGQNCYPEGCSGPK (ends and bridges not checked; cysteine pairing not given here) [Av3bM32] | – | No | – |
| KSCCPCYWGGCPWGQNCYPEGCSGPKG [Av3bM148] | No | – | degradation product during fermentation (HPLC) [1]: did not show any degradation product; also recorded: without apparent degradation products |
| KSCCPCYWGGCPWGQNCYPNGCSGPK (Av3bM23; VARIANT (1)..(26) Recombinant variant of Anemonia viridis Av3 peptide) | – | Yes | housefly knock-down / insecticidal activity relative to Av3b (houseflies): without a concomitant reduction in housefly knock-down activity; also recorded: insecticidal activity |
| KSCCPCYWPGCPWGQNCYPEGCRGPD (ends and bridges not checked; cysteine pairing not given here) [Av3bM125] | – | – | half-degradation time ([2]; Av3b production fermentation beer pH 6.5, room temperature (Example 12, FIG. 39)): 369 h; resistance to fermentation beer protease cleavage compared to Av3b [2]: dramatically improved resistance to degradation |
| KSCCPCYWPPCPWGQNCYPEGCSGPK (ends and bridges not checked; cysteine pairing not given here) [Av3bM26] | – | No | – |
| KSCCPCYWGGCPWGQNCYPEGCSGRV (ends and bridges not checked; cysteine pairing not given here) [Av3bM147] | Yes | – | – |
| KSCCPCYWGGCPWGQNCYPEGCDGPT (ends and bridges not checked; cysteine pairing not given here) [Av3bM157] | Yes | – | – |

| Sequence | Degradation? [1] | Activity (houseflies) | further results |
| --- | --- | --- | --- |
| KSCCPCYWGGCPWGQNCYPEGCSGPE (ends and bridges not checked; cysteine pairing not given here) [Av3bM101] | Yes | – | – |
| KSCCPCYWGGCPWGQNCYPEGCSGPKVI [Av3bM168] | Yes | – | – |
| KSCCPCYWGGCPWGQNCYPEGCSGPT (ends and bridges not checked; cysteine pairing not given here) [Av3bM111] | Yes | – | – |
| KSCCPCYWGGCPWGTNCYPEGCSGPK (ends and bridges not checked; cysteine pairing not given here) [Av3bM21] | – | No | – |
| KSCCPCYWAGCPWGQNCYPEGCSGPK (ends and bridges not checked; cysteine pairing not given here) [Av3bM27] | – | Yes | housefly knock-down / insecticidal activity relative to Av3b (houseflies): behaved like Av3b; also recorded: insecticidal activity comparable to Av3b |
| KSCCPCYWGGCPWGQNCYPEGCDGPG (ends and bridges not checked; cysteine pairing not given here) [Av3bM171] | Yes | – | – |
| QSCCPCYWGGCPWGQNCYPEGCSGPH (ends and bridges not checked; cysteine pairing not given here) [Av3bM30] | – | No | – |
| SSCCPCYWGGCPWGQNCYPEGCSGPT (ends and bridges not checked; cysteine pairing not given here) [Av3bM33] | – | No | – |
| KSCCPCYWGGCPWGQTCYPEGCSGPK (ends and bridges not checked; cysteine pairing not given here) [Av3bM22] | – | No | – |
| KSCCPCYWGGCPWGQDCYPDGCDGPK (Av3bM19; VARIANT (1)..(26) Recombinant variant of Anemonia viridis Av3 peptide) | – | Yes | housefly knock-down / insecticidal activity relative to Av3b (houseflies): without a concomitant reduction in housefly knock-down activity; also recorded: insecticidal activity; half-degradation time ([2]; Av3b production fermentation beer pH 6.5, room temperature (Example 11, FIG. 37)): 666 h; peptide remaining ([2]; fermentation beer pH 6.5, room temperature, 248 hours, HPLC peak area relative to starting amount): 95%; resistance to fermentation beer protease cleavage compared to Av3b [2]: greater resistance to yeast fermentation beer protease cleavage; also recorded: improved resistance to fermentation beer cleavage; also recorded: resist the degradation in Av3b fermentation beer |
| KSCCPCYWGGCPWGQNCYPEGCSGPD (ends and bridges not checked; cysteine pairing not given here) [Av3bM100] | Yes | – | – |
| KSCCPCYWGGCPWGQNCYPEGCSGPQ (ends and bridges not checked; cysteine pairing not given here) [Av3bM102] | Yes | – | – |
| KSCCPCYWGGCPWGQNCYPEGCSGPA (ends and bridges not checked; cysteine pairing not given here) [Av3bM97] | Yes | – | – |
| KSCCPCYWPGCPWGQNCYPEGCSGPK (ends and bridges not checked; cysteine pairing not given here) [Av3bM25] | – | Yes | housefly knock-down / insecticidal activity relative to Av3b (houseflies): without a concomitant reduction in housefly knock-down activity; also recorded: insecticidal activity |
| KSCCPCYWGGCPWGQNCYPEGCSGPH (ends and bridges not checked; cysteine pairing not given here) [Av3bM104] | Yes | – | – |
